Measured values as given in article PMC12611452.

Biological target: PGDH3-mCherry (protease-free, released from PGDH3-mCherry-TEV-mVenus by TEV cleavage) (Arabidopsis thaliana) (UniProt Q9LT69)
Test: mass photometry; TwoMP instrument, 5 nM protein in PBS, 60 s movies

Substance: PGDH3-mCherry (protease-free, released from PGDH3-mCherry-TEV-mVenus by TEV cleavage) (from UniProt Q9LT69 39-588) (enzyme)
- stoichiometry N: 2
